The source of these data is article PMC6863750.

For experiment [1], the target named is Rac1A P29S/Q61L-mCherry-mito (targeted to mitochondria) (D. discoideum) (UniProt P34144). Put plainly: mitochondrial co-recruitment.
Experiment [2] has as its target GFP-CYRI-mito, WT (Dictyostelium CYRI targeted to mitochondria) (D. discoideum). Put plainly: mitochondrial co-recruitment.

On to “Dictyostelium CYRI WT, GFP fusion (natural protein)”, for which the Pearson's coefficient of correlation for co-localisation at the mitochondria in experiment [1] turned out to be 0.77. As to “Rac1A P29S/Q61L-mCherry (from UniProt P34144 1-194) (natural protein)”, the Pearson's coefficient of correlation for co-localisation at the mitochondria in experiment [2] came out at 0.44.
